Assays:
UP1 V90A/R92A/S95A = UP1 V90A/R92A/S95A (human, UniProt P09651 1-196, V90A;R92A;S95A); test: ITC; ITC: 20 mM Tris-HCl pH 7.5, 150 mM NaCl, 20 C; protein 160 uM in syringe, RNA 10 uM in cell; conditions: protein: recombinant; tags: C-terminal His6; single strand; crystal has 2 antiparallel strands
UP1 K113A = UP1 K113A (human, UniProt P09651 1-196, K113A); test: as above; conditions: protein: recombinant; tags: C-terminal His6; single strand; crystal has 2 antiparallel strands
UP1 R55A = UP1 R55A (human, UniProt P09651 1-196, R55A); test: as above; conditions: protein: recombinant; tags: C-terminal His6; single strand; crystal has 2 antiparallel strands
UP1 R55A, sequence (P09651 1-196 R55A): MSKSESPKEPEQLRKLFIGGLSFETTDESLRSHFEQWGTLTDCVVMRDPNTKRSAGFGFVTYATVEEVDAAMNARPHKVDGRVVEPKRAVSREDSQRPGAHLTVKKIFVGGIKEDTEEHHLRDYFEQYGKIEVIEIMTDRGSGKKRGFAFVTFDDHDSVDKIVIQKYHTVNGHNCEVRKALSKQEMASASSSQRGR

UP1 wt = UP1 wt (human, UniProt P09651 1-196); test: as above; conditions: protein: recombinant, tags: C-terminal His6, chain copies: 2, single strand
UP1 wt, sequence (P09651 1-196): as the sequence (P09651 1-196 R55A) above, with A55R counted along it

UP1 D42R = UP1 D42R (human, UniProt P09651 1-196, D42R); test: as above; conditions: protein: recombinant; tags: C-terminal His6; single strand; crystal has 2 antiparallel strands
UP1 D42R, sequence (P09651 1-196 D42R): as the sequence (P09651 1-196 R55A) above, with D42R, A55R counted along it

UP1 Q12A/G147A = UP1 Q12A/G147A (human, UniProt P09651 1-196, Q12A;G147A); test: as above; conditions: protein: recombinant, tags: C-terminal His6, single strand
UP1 Q12A/G147A, sequence (P09651 1-196 Q12A/G147A): as the sequence (P09651 1-196 R55A) above, with Q12A, A55R, G147A counted along it

UP1 R82A = UP1 R82A (human, UniProt P09651 1-196, R82A); test: as above; conditions: protein: recombinant; tags: C-terminal His6; single strand; crystal has 2 antiparallel strands
UP1 R82A, sequence (P09651 1-196 R82A): as the sequence (P09651 1-196 R55A) above, with A55R, R82A counted along it

UP1 R82A/K113A = UP1 R82A/K113A (human, UniProt P09651 1-196, R82A;K113A); test: as above; conditions: protein: recombinant, tags: C-terminal His6, single strand
UP1 R82A/K113A, sequence (P09651 1-196 R82A/K113A): as the sequence (P09651 1-196 R55A) above, with A55R, R82A, K113A counted along it

UP1 R146A = UP1 R146A (human, UniProt P09651 1-196, R146A); test: as above; conditions: protein: recombinant; tags: C-terminal His6; single strand; crystal has 2 antiparallel strands
UP1 R146A, sequence (P09651 1-196 R146A): as the sequence (P09651 1-196 R55A) above, with A55R, R146A counted along it

UP1 D42R/R146A [1] = biological target: T1, UP1 D42R/R146A (human, UniProt P09651 1-196, D42R;R146A); test: ITC; text: could not bind RNA at all (conflicts with table); ITC: 20 mM Tris-HCl pH 7.5, 150 mM NaCl, 20 C; protein 160 uM in syringe, RNA 10 uM in cell; conditions: protein: recombinant; tags: C-terminal His6; single strand; crystal has 2 antiparallel strands
T1 sequence (P09651 1-196 D42R/R146A): as the sequence (P09651 1-196 R55A) above, with D42R, A55R, R146A counted along it

UP1 D42R/R146A [2] = biological target: T1, UP1 D42R/R146A; test: ITC; ITC: 20 mM Tris-HCl pH 7.5, 150 mM NaCl, 20 C; protein 160 uM in syringe, RNA 10 uM in cell; conditions: protein: recombinant; tags: C-terminal His6; single strand
[3] = crystal has 2 antiparallel strands

UP1 K113A, sequence (P09651 1-196 K113A): as the sequence (P09651 1-196 R55A) above, with A55R, K113A counted along it
UP1 V90A/R92A/S95A, sequence (P09651 1-196 V90A/R92A/S95A): as the sequence (P09651 1-196 R55A) above, with A55R, V90A, R92A, S95A counted along it

| Binder | Kd (UP1 V90A/R92A/S95A) | Kd (UP1 K113A) | Kd (UP1 R55A) | Kd (UP1 wt; [3]) | Kd (UP1 D42R) | Kd (UP1 Q12A/G147A; [3]) | Kd (UP1 R82A) | Kd (UP1 R82A/K113A; [3]) | Kd (UP1 R146A) | Kd (UP1 D42R/R146A [1]) | Kd (UP1 wt) | Kd (UP1 Q12A/G147A) | Kd (UP1 D42R/R146A [2]) | Kd (UP1 R82A/K113A) |
| --- | --- | --- | --- | --- | --- | --- | --- | --- | --- | --- | --- | --- | --- | --- |
| UUAGGGUUAGGG (ssRNA) [TERRA (UUAGGG)2] | 1410 ± 120 nM | 300 ± 20 nM | 520 ± 40 nM | 270 ± 20 nM | 630 ± 120 nM | 120 ± 20 nM | 460 ± 70 nM | 770 ± 160 nM | 2120 ± 500 nM | 2260 ± 310 nM | – | – | – | – |
| TTAGGGTTAGGG (ssDNA) [Telo DNA (TTAGGG)2] | – | – | – | – | – | – | – | – | – | – | 80 ± 20 nM | 210 ± 80 nM | 4030 ± 1020 nM | 100 ± 30 nM |

Reference: PMC12019227, “Phase separation of hnRNPA1 and TERRA regulates telomeric stability”
